In the RNAGym collection of RNA variant scans (doi:10.1093/molbev/msab373) one finds reverse-splicing fitness data, which are given here for 15 variants.

The chains are these.
B1: Azoarcus group I ribozyme (parent)
chain: GUGCCUUGCGCCGGGAAACCACGCAAGGGAUGGUGUCAAAUUCGGCGAAACCUAAGCGCCCGCCCGGGCGUAUGGCAACGCCGAGCCAAGCUUCGGCGCCUGCGCCGAUGAAGGUGUAGAGACUAGACGGCACCCACCUAAGGCAAACGCUAUGGUGAAGGCAUAGUCCAGGGAGUGGCGAAAGUCACACAAACCGG

The variants in the data set derive from B1. The data set is described as follows: reverse-splicing fitness (ratio to wild type); higher = more active; in vitro selection; Mg2+ level not given. In short, it runs like this: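 An in vitro group I ribozyme library with randomized positions was T7-transcribed and gel-purified. In triplicate, 10 pmol RNA in EPPS pH 7.5 was reacted with 50 pmoles of a 30-nt RNA substrate for 1 h at 37 °C across several added MgCl2 levels (1–48 mM), then stopped with EDTA. Products were reverse transcribed from a substrate-complementary primer, PCR-amplified and sequenced (HiSeq 4000). Fitness is a variant's read proportion after selection over that before, normalised to wild type.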
In the case of GUGCCUUGCGCCGGGAAACCACGCAAGGGAUGGUGUCAAAUUCGGCGAAACCUAAGCGCCCGCCCGGGCGUAUGGCAACGCAGAGCCAAGCUUCGGCGCCUGCGCCGAUGAAGGUGUAGUGACUAGACGGCACCCACCUAAGGCUAACGGUAUGGUGAAGGCAUAGUCGAGGGAGGGGCGAAAGUCACACAAACCGG [C82A A120U A145U C150G C169G U176G], the reverse-splicing fitness stood at 0.00188.
On to GUGCCUUGCGCCGGGAAACCACGCAAGGGAUGGUGUCAAAUUCGGCGAAACCUAAGCGCCCGCCCGGGCGUAUGGCAACGCAGAGCCAAGCUUCGGCGCCUGCGCCGAUGAAGGUGUAGUGACUAGACGGCACCCACCUAAGGCUAACGGUAUGGUGAAGGCAUAGUCGAGGGAGAGGCGAAAGUCACACAAACCGG [C82A A120U A145U C150G C169G U176A], for which the reverse-splicing fitness worked out at 0.00253.
On to GUGCCUUGCGCCGGGAAACCACGCAAGGGAUGGUGUCAAAUUCGGCGAAACCUAAGCGCCCGCCCGGGCGUAUGGCAACGCAGAGCCAAGCUUCGGCGCCUGCGCCGAUGAAGGUGUAGUGACUAGACGGCACCCACCUAAGGCUAACGGUAUGGUGAAGGCAUAGUCGAGGGAGCGGCGAAAGUCACACAAACCGG [C82A A120U A145U C150G C169G U176C], for which the reverse-splicing fitness is 0.00221.
On to GUGCCUUGCGCCGGGAAACCACGCAAGGGAUGGUGUCAAAUUCGGCGAAACCUAAGCGCCCGCCCGGGCGUAUGGCAACGCAGAGCCAAGCUUCGGCGCCUGCGCCGAUGAAGGUGUAGUGACUAGACGGCACCCACCUAAGGCUAACGGUAUGGUGAAGGCAUAGUCAAGGGAGAGGCGAAAGUCACACAAACCGG [C82A A120U A145U C150G C169A U176A], for which the reverse-splicing fitness was found to be 0.00324.
Consider GUGCCUUGCGCCGGGAAACCACGCAAGGGAUGGUGUCAAAUUCGGCGAAACCUAAGCGCCCGCCCGGGCGUAUGGCAACGCAGAGCCAAGCUUCGGCGCCUGCGCCGAUGAAGGUGUAGUGACUAGACGGCACCCACCUAAGGCUAACGGUAUGGUGAAGGCAUAGUCAAGGGAGCGGCGAAAGUCACACAAACCGG [C82A A120U A145U C150G C169A U176C], for which the reverse-splicing fitness was found to be 0.00214.
On to GUGCCUUGCGCCGGGAAACCACGCAAGGGAUGGUGUCAAAUUCGGCGAAACCUAAGCGCCCGCCCGGGCGUAUGGCAACGCAGAGCCAAGCUUCGGCGCCUGCGCCGAUGAAGGUGUAGUGACUAGACGGCACCCACCUAAGGCUAACGGUAUGGUGAAGGCAUAGUCAAGGGAGGGGCGAAAGUCACACAAACCGG [C82A A120U A145U C150G C169A U176G], for which the reverse-splicing fitness came to 0.00201.
Next, GUGCCUUGCGCCGGGAAACCACGCAAGGGAUGGUGUCAAAUUCGGCGAAACCUAAGCGCCCGCCCGGGCGUAUGGCAACGCAGAGCCAAGCUUCGGCGCCUGCGCCGAUGAAGGUGUAGUGACUAGACGGCACCCACCUAAGGCUAACGGUAUGGUGAAGGCAUAGUCUAGGGAGCGGCGAAAGUCACACAAACCGG [C82A A120U A145U C150G C169U U176C]: 0.00262; GUGCCUUGCGCCGGGAAACCACGCAAGGGAUGGUGUCAAAUUCGGCGAAACCUAAGCGCCCGCCCGGGCGUAUGGCAACGCAGAGCCAAGCUUCGGCGCCUGCGCCGAUGAAGGUGUAGUGACUAGACGGCACCCACCUAAGGCUAACGGUAUGGUGAAGGCAUAGUCUAGGGAGGGGCGAAAGUCACACAAACCGG [C82A A120U A145U C150G C169U U176G]: 0.0021.
As to GUGCCUUGCGCCGGGAAACCACGCAAGGGAUGGUGUCAAAUUCGGCGAAACCUAAGCGCCCGCCCGGGCGUAUGGCAACGCAGAGCCAAGCUUCGGCGCCUGCGCCGAUGAAGGUGUAGUGACUAGACGGCACCCACCUAAGGCUAACGGUAUGGUGAAGGCAUAGUCUAGGGAGAGGCGAAAGUCACACAAACCGG [C82A A120U A145U C150G C169U U176A], the reverse-splicing fitness came out at 0.0025.
Consider GUGCCUUGCGCCGGGAAACCACGCAAGGGAUGGUGUCAAAUUCGGCGAAACCUAAGCGCCCGCCCGGGCGUAUGGCAACGCAGAGCCAAGCUUCGGCGCCUGCGCCGAUGAAGGUGUAGUGACUAGACGGCACCCACCUAAGGCUAACGUUAUGGUGAAGGCAUAGUCGAGGGAGUGGCGAAAGUCACACAAACCGG [C82A A120U A145U C150U C169G], for which the reverse-splicing fitness turned out to be 0.00375.
Take GUGCCUUGCGCCGGGAAACCACGCAAGGGAUGGUGUCAAAUUCGGCGAAACCUAAGCGCCCGCCCGGGCGUAUGGCAACGCAGAGCCAAGCUUCGGCGCCUGCGCCGAUGAAGGUGUAGUGACUAGACGGCACCCACCUAAGGCUAACGUUAUGGUGAAGGCAUAGUCUAGGGAGUGGCGAAAGUCACACAAACCGG [C82A A120U A145U C150U C169U]: the reverse-splicing fitness is 0.00442.
For GUGCCUUGCGCCGGGAAACCACGCAAGGGAUGGUGUCAAAUUCGGCGAAACCUAAGCGCCCGCCCGGGCGUAUGGCAACGCAGAGCCAAGCUUCGGCGCCUGCGCCGAUGAAGGUGUAGUGACUAGACGGCACCCACCUAAGGCUAACGUUAUGGUGAAGGCAUAGUCAAGGGAGUGGCGAAAGUCACACAAACCGG [C82A A120U A145U C150U C169A], the reverse-splicing fitness came to 0.00226.
For the variant GUGCCUUGCGCCGGGAAACCACGCAAGGGAUGGUGUCAAAUUCGGCGAAACCUAAGCGCCCGCCCGGGCGUAUGGCAACGCAGAGCCAAGCUUCGGCGCCUGCGCCGAUGAAGGUGUAGUGACUAGACGGCACCCACCUAAGGCUAACGGUAUGGUGAAGGCAUAGUCCAGGGAGGGGCGAAAGUCACACAAACCGG [C82A A120U A145U C150G U176G], the reverse-splicing fitness came to 0.00318.
GUGCCUUGCGCCGGGAAACCACGCAAGGGAUGGUGUCAAAUUCGGCGAAACCUAAGCGCCCGCCCGGGCGUAUGGCAACGCAGAGCCAAGCUUCGGCGCCUGCGCCGAUGAAGGUGUAGUGACUAGACGGCACCCACCUAAGGCUAACGGUAUGGUGAAGGCAUAGUCCAGGGAGAGGCGAAAGUCACACAAACCGG [C82A A120U A145U C150G U176A]: the reverse-splicing fitness was determined as 0.00533.
Next, GUGCCUUGCGCCGGGAAACCACGCAAGGGAUGGUGUCAAAUUCGGCGAAACCUAAGCGCCCGCCCGGGCGUAUGGCAACGCAGAGCCAAGCUUCGGCGCCUGCGCCGAUGAAGGUGUAGUGACUAGACGGCACCCACCUAAGGCUAACGGUAUGGUGAAGGCAUAGUCCAGGGAGCGGCGAAAGUCACACAAACCGG [C82A A120U A145U C150G U176C]: 0.00823.
